Assay results: patent publication US20030206891A1 (ARIAD GENE THERAPEUTICS, published 2003)

Target: T1, Lex-FKBP (human, UniProt P0A7C2 1-87; P62942 2-108)
T1 construct: range 1-87;range 2-108; Translated in vitro in reticulocyte lysate; also called L87G6FKBP; p19BL87G6FKBP
Experiment: gel mobility shift with in vitro translated proteins and LexCon DNA probe, rapamycin added

B1: Lex-FRAP (other, UniProt P0A7C2 1-87, looked up, not shown: small tags and cut ends)
chain: MKALTARQQEVFDLIRDHISQTGMPPTRAEIAQRLGFRSPNAAEEHLKALARKGVIEIVSGASRGIRLLQEEEEGLPLVGRVAAGEPEMWHEGLEEASRLYFGERNVKGMFEVLEPLHAMMERGPQTLKETSFNQAYGRDLMEAQEWCRKYMKSGNVKDLTQAWDLYYHVFRRISK
notes: range 1-87;range 2025-2113; Translated in vitro in reticulocyte lysate; Junction residues from the SpeI-XbaI ligation are not spelled out; also called L87FRB; p19BL87FRB
**Q.** Does B1 bind?
**A.** Result: binds
